Data reported in PMC6828947, “The Cotton GhWRKY91 Transcription Factor Mediates Leaf Senescence and Responses to Drought Stress in Transgenic Arabidopsis thaliana”.

B1: GhAPX1 promoter W-box probe (dsDNA)
DNA 1: TCCCCGACGTTCCGACAAGTTTTGACTATTTTATTTTCTTAAAATAAAAAGC
DNA 2: GCTTTTTATTTTAAGAAAATAAAATAGTCAAAACTTGTCGGAACGTCGGGGA
B2: GhWRKY27a promoter W-box probe (dsDNA)
DNA 1: GCGACTTGGTCAGCAATTGGAGTTTTGACCTTACCTCACTCTTCAGTCCAC
DNA 2: GTGGACTGAAGAGTGAGGTAAGGTCAAAACTCCAATTGCTGACCAAGTCGC
B3: GhWRKY17 promoter W-box probe (dsDNA)
DNA 1: AATTTCAAACGGCTAATCCCCACCTTTTGACCTTATCTCTTGTCAGTGACCCA
DNA 2: TGGGTCACTGACAAGAGATAAGGTCAAAAGGTGGGGATTAGCCGTTTGAAATT
B4: GhWRKY17 promoter W-box probe, unlabelled competitor (dsDNA)
DNA 1: B3 DNA 1
DNA 2: B3 DNA 2
B5: GhWRKY68 promoter W-box probe (dsDNA)
DNA 1: GCACTGTTCAATATCCGTACAAGTGGTTGACCTACAATTGCCCGTCGATCC
DNA 2: GGATCGACGGGCAATTGTAGGTCAACCACTTGTACGGATATTGAACAGTGC

Columns and labels:
GhWRKY91 [1] = biological target: T1, GhWRKY91 (Gossypium hirsutum (CCRI10), UniProt A0A068LD65 1-273); assay: EMSA; LightShift Chemiluminescent EMSA Kit (Thermo Scientific); buffer, salt, pH and temperature not stated; details: protein: recombinant; tags: N-terminal GST, removed by digestion after purification; label: biotin end label
GhWRKY91 [2] = biological target: T1, GhWRKY91; assay: competition; excess unlabelled probe against labelled GhWRKY17 probe; LightShift Chemiluminescent EMSA Kit (Thermo Scientific); buffer, salt, pH and temperature not stated; details: protein: recombinant; tags: N-terminal GST, removed by digestion after purification

T1 sequence (A0A068LD65 entry or part of it): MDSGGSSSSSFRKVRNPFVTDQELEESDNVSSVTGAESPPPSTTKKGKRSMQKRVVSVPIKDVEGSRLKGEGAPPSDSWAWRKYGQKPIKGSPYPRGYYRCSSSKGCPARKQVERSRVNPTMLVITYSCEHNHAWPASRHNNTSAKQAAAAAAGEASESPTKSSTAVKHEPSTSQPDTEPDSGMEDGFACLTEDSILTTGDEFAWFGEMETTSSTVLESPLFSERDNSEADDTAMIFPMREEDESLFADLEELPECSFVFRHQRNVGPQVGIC

| Binder | binding result (GhWRKY91 [1]) | binding result (GhWRKY91 [2]) |
| --- | --- | --- |
| B1 | no binding |  |
| B2 | no binding |  |
| B3 | binds |  |
| B4 |  | binds |
| B5 | no binding |  |
